According to the DeepSol protein solubility set:

Assay: soluble on expression in E. coli; label from the status in PepcDB or PDB records

| Sequence | soluble on expression in E. coli |
| --- | --- |
| MPAPDLGFALSLPPKKAIEWLESKKVTAESYRNLTASEIAKVYTIARMTDLDMLNDIKTSMVESAKSGQSFDDWRKGILNLLSNKGWLHPNGHNGKDIIDPATGEVFGSPRRLETIYRTNMQTAYNAGQYQGYMANIDARPYWMYDAVGDSRTRPAHSAIDGLVYRYDDPFWATFYPPNGYNCRCSVIALSERDVERQGRIVGQSTADNLVETHKIYNKKGDTYLTLAYKAPDGSLYTTDRGFDYNAGRMNYRPDLDKYDRALAHQFAKAEMGGADFKTSFKQLEKEFYEVKQRLDIDGKPDKEQKIKIRNALSRQLKFAAGVLSKETQELAGMTRATVWLSDDTLVKQVDSREGQNFDDSYYAFLPDMLQNPEHVIRDNRELIFTARYKGSALWAVLKYIKEVDEIYLQSYRISNDKEIAKFMAKKKVLK | not soluble |
| GPGSMAKSSRSKWKKMHRRQRAQAEATNTVKRICLLNKKLKLTVKGGISAVPPQEPEKRFHFLNPVLDSRVPNTRKNLNNNYRAELNHVEYDYTKPLKLAPPKTNMYGKTDVDAPHPMTVMYETIDADTPLAGHALTKADMERLARRQAQQESEASAAVADAEKDASKEDGDNADDGPEEYVFGMEDAAPRRARGQHKTSAKKKGSVAPKALKGAASASVGASSSVSETGSSSRMLAAAAAAMTNEEEEADHRTRNGGVTAVNKIASMQTMRKKNGTMVSAGGASKMKKVGQLGGSSGTRVVSSGGKVARKDVGNAKSGSKR | soluble |
| MTFALGQRWISDTESDLGLGTVVAMDARTVTLMFAASEENRVYARNDAPVTRVTFNVGDVIDCQEGWSLKVEEVLEDEGLYTYFGTREDTQETAVVLREIFLSNQIRFNKPQDKLYAGQIDRMDNFVLRY | not soluble |
| MGSDKIHHHHHHMHVFNYGRSYLERGDARPIYLPELPLVRGALLPQAPLDMAGALRDAAPDAWGRRVIINRLMGLKGVGAHAVEFDELTYLLHSGSDRIGALDFQTSPDRYRPREAENATLEELLEAAERVDRGEPIPPALDKALFHGSSIGGARPKALIEDGQEKFIAKFSATNDTYAIVKAEYVAMRLAKEAAGLTVAAVRLVKANGKDVLLVKRFDRERTGAGWTRRAMVSALTLLGLSEMQARYASYHDLTDIIRARFTEPRDSLRELYGRMVFNVLSGNTDDHARNHAAFWNGESLALTPAYDLCPQQRTGREANQAMLIGQEDRRSRLETCRLAASAFLLNDVEARALIHAQIDAIGAAWDGICDEADLSKIDRAFLWRRQFLNDYAFEGFGR | not soluble |
| MKVDGIQAEMRAMMVEATNTTPTGTGAKVGADFNDLLTKAINNVNSLQKSSGDLQTRFDRGDADVSLSDVMIARNKSSVAFEATVQIRNKLVEAYKDLMNMPV | not soluble |
| SEEAGSVALEELVEKEKDRFFSGVDYIVISDNLWISQRKPAITYGTRGNSYFMVEVKCRDQDFHSGTFGGILHEPMADLVALLGSLVDSSGHILVPGIYDEVVPLTEEEINTYKAIHLDLEEYRNSSRVEKFLFDTKEEILMHLWRYPSLSIHGIEGAFDEPGTKTVIPGRVIGKFSIRLVPHMNVSAVEKQVTRHLEDVFSKRNSSNKMVVSMTLGLHPWIANIDDTQYLAAKRAIRTVFGTEPDMIRDGSTIPIAKMFQEIVHKSVVLIPLGAVDDGEHSQNEKINRWNYIEGTKLFAAFFLEMAQLH | soluble |
| MGSDKIHHHHHHMNTKVMTAIPFTIDRDWLFTHLHIKPGKPYVEDVENMIEQALTIGKPKAAYRLAYIESKGEDFVVVDGFKFTSRVLRVNLAETFKVVPYVITCGEELERWAKTFHHMFESYCADGIMEAVMHSARVAFFSQIAEEYNLGHAVNMNPGSLEDWPLKEQAPLFQLLGDVKSLIGVELKESFLMSPIKTVSGFRFSKEGSYENCQLCPREKCPGRRAPYEQNLYAEKYQLK | not soluble |
| MAHHHHHHMSEAAALESIMRPPSPELQRRLFVPTPSLHASAETARQHRAERQSALLAERATAYTCHPAILPVSREMAASERRRNGWMQLPVGDVLMERHKRVEGHLEEKRQQEVARFSFRPTISARARTMQSSRPVVERLYSGTADAGTDTATFTDVTNLRSSSGEKTKTASMATYQRLYQDAVTRRAHDQMQEKLARVRSKNEFCPCTDSVSGLIASKRGDTTRERLLRPKAALDVARDVYPQETFAPRINTSTRFERVPLSARAAIWQRRRSERLHHAVVARCEVEMRECTFHPRTRRGLTALSQAHARATADSYTGPLASIMSSAEELLRRVDLEASAPLPESGRCAPLLDDDGKLPGTVPVDILAVLHEAEHVSEALRLLPDTNLDLDLSQHTSLG | not soluble |
| MDGVHDLAGVQGFGKVPHTVNADIGPTFHAEWEHLPYSLMFAGVAELGAFSVDEVRYVVERMEPRHYMMTPFYERYVIGVATLMVEKGILTQDELESLAGGPFPLSRPSESEGRPAPVETTTFEVGQRVRVRDEYVPGHIRMPAYCRGRVGTISHRTTEKWPFPDAIGHGRNDAGEEPTYHVKFAAEELFGSDTDGGSVVVDLFEGYLEPAA | soluble |
| MSLTPMFKTPVVMTIAGSDSGGGAGIAADIKTFAAFGVHGTCAITSVTAQNTTGVLETFDLAPEAVASQIEAVCTDMDVKWAKTGMLASSEIIKEVAKQVKKHNLSLVLDPVMAAEAGGDLLKKEALSVLIKELLPLCKVTTPNASEAGALAGVTVKTHEDAKLAARKIADLGVESVIVTGGHIDATDLLYEPVSGTFTRIPGTFVKGGTHGSGCTYSASMAACLARGDSTETAARKAKTFVEQAILRSVPVGKGVGPVNPLANTLEEKERYLALQDVKEAVSILTYSPDFAKLIPEVGCNIGMAIPCARTYNEIAAVEGRIIRFREKAIPVGYVNFGASQHVARVILAALRENPEMRAAMNVKYSEEILEACREINPGISSFDRAEDPGDASTMEWGTSEAIRKYGGMPEVIYDKGAIGKEPMVRLLGKSASEVAKLAVELARRVKEGHHHHHH | soluble |
| MSNTHEVRPGQSIELLKALHILTRDGKMNQDSRRKLKQVYHLYQFIEPLLQNARNARGAVTLVDHGAGKSYLGFILYDLFFKDRRDASHIYGIETRAELVQSATELAARLGFGGMSFLNLSVADSIASEQLPPRVDIVTALHACNTATDDAIRFALAKQAQSIVLVPCCQAEVAAVLRKNKARALADPMAELWRHPLHTREFGSQLTNVLRCLQLEAHGYQLSVTELVGWEHSMKNELIIARHQPGRPRREPARRLREMLERIGLQELSERFQVPAQP | not soluble |
| MNLHEYQAKEILARYGVPVPPGKVAYTPEEAKRIAEEFGKRVVIKAQVHVGGRGKAGGVKLADTPQEAYEKAQAILGMNIKGLTVKKVLVAEAVDIAKEYYAGLILDRAKKRVVLMLSKEGGVDIEEVAAERPEAIHKFWIDPHKGFRPFEAREMVKRAGLEGNLNKLAQVLVALYRAYEGVDASIAEINPLVVTTDGGIVAADAKIVLDDNALFRHPDLAELREVEAEHPLEVEASNYGFAYVKLDGNIGIIGNGAGLVMYTLDLVNRVGGKPANFLDIGGGAKADVVYNALKVVLKDPDVKGVFINIFGGITRADEVAKGVIRALEEGLLTKPVVMRVAGTAEEEAKKLLEGKPVYMYPTSIEAAKVIVAMVGGAA | soluble |
| SLGLKAAQKTLFPLRSIDDVVRLFAAELGREEPDLVLLSLVLGFVEHFLAVNRVIPTNVPELTFQPSPAPDPPGGLTYFPVADLSIIAALYARFTAQIRGAVDLSLYPREGGVSSRELVKKVSDVIWNSLSRSYFKDRAHIQSLFSFITGWSPVGTKLDSSGVAFAVVGACQALGLRDVHLALSEDHAWVVFGPNGEQTAEVTWHGKGNEDRRGQTVNAGVAERSWLYLKGSYMRCDRKMEVAFMVCAINPSIDLHTDSLELLQLQQKLLWLLYDLGHLERYPMALGNLADLEELEPTPGRPDPLTLYHKGIASAKTYYRDEHIYPYMYLAGYHCRNRNVREALQAWADTATVIQDYNYCREDEEIYKEFFEVANDVIPNLLKEAASLLEAGEERPGEQSQGTQSQGSALQDPECFAHLLRFYDGICKWEEGSPTPVLHVGWATFLVQSLGRFEGQVRQKVRIVSREAEAAEAEEPWGEEAREGRRRGPRRESKPEEPPPPKKPALDKGLGTGQGAVSGPPRKPPGTVAGTARGPEGGSTAQVPAPAASPPPEGPVLTFQSEKMKGMKELLVATKINSSAIKLQLTAQSQVQMKKQKVSTPSDYTLSFLKRQRKG | soluble |
| AGQFGTDYNAAIKVDTQTEFCGYVGTKGSSSVAAMFVEGNEVDSLSAGDKAIIVLGETPFYAESGGQCGDAGEIRTEAGVFRVEDTQKLGNAIAHHGVMAEGVLAKGDEVATIVDAERRAAISLN | not soluble |
| EAEEDGDLQCLCVKTTSQVRPRHITSLEVIKAGPHCPTAQLIATLKNGRKICLDLQAPLYKKIIKKLLES | soluble |
